Reference: US20160159865A1 (CHILDREN S HOSPITAL AND RESEARCH CENTER AT OAKLAND, published 2016)

Molecular target: T1, human factor H (human, UniProt P08603 19-1231)
T1 construct: Purified human factor H was used in the ELISA; also called fH; human fH
Assay: ELISA, fHbp (2 µg/ml) on plate, human factor H titrated

T1 sequence (P08603 19-1231 Y402H/T493R limits assumed): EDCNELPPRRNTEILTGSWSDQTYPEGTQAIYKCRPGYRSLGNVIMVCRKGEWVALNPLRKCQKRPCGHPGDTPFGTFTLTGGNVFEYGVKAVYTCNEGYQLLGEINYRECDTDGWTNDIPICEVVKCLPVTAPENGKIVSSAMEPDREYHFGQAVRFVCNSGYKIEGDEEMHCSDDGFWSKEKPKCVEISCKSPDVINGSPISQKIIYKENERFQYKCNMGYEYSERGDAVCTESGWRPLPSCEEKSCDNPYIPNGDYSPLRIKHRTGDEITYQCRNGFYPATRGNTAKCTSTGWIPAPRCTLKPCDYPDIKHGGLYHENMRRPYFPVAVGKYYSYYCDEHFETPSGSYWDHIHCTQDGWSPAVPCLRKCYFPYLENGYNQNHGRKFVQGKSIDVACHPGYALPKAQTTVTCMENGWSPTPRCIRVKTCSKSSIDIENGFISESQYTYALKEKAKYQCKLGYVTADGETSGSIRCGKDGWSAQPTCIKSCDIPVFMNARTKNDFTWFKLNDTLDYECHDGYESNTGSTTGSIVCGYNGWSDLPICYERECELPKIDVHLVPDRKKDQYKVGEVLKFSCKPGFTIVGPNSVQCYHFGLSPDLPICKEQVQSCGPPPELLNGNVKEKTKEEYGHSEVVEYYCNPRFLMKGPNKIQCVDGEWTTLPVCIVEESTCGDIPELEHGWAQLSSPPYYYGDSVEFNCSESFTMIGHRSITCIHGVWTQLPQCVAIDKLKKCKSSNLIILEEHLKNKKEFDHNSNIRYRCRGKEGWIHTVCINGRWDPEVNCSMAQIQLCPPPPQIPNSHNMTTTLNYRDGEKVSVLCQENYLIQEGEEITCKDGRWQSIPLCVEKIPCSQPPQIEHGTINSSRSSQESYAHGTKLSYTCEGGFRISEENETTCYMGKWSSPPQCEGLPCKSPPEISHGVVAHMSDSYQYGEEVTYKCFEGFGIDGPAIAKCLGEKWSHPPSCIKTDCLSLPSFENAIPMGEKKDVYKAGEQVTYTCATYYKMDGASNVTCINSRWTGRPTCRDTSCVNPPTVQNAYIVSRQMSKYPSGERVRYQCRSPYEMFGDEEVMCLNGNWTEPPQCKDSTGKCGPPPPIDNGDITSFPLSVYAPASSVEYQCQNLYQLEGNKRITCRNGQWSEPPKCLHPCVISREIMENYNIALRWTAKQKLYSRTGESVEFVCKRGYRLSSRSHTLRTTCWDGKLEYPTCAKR

B1: fHbp ID 79 H223R mutant (other)
chain: CSSGGGGSGSGGVAADIGTGLADALTTPLDHKDKGLKSLTLEDSIPQNGTLTLSAQGAEKTFKAGDKDNSLNTGKLKNDKISRFDFVQKIEVDGQTITLASGEFQIYKQDHSAVVALQIEKINNPDKIDSLINQRSFLVSGLGGEHTAFNQLPGGKAEYHGKAFSSDDAGGKLTYTIDFAAKQGHGKIEHLKTPEQNVELASAELKADEKSHAVILGDTRYGSEEKGTYRLALFGDRAQEIAGSATVKIGEKVHEIGIAGKQ
notes: Purified recombinant mutant
Does B1 bind?
Result: no binding (tested: human factor H 0.0012 to 20 µg/ml)
